Experiment [1] has as its target T1, corticotropin releasing factor 2 receptor.
T1 sequence (Q13324 whole entry, species assumed, looked up): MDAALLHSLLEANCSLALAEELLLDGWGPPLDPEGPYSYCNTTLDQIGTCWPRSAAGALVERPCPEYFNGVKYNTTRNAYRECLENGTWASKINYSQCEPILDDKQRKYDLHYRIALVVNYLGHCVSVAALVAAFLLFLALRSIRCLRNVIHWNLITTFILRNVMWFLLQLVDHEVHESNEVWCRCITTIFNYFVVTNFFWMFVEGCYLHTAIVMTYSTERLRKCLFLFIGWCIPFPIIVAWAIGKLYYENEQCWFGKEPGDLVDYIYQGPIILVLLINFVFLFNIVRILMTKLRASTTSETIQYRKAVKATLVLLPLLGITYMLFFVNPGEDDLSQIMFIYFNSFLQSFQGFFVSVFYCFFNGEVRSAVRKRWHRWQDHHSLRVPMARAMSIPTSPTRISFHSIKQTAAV
Nature of the experiment: cell-based or functional assay.

Experiment [2] addresses corticotropin releasing factor 1 receptor. As to the kind of experiment: cell-based or functional assay.

Ends that are not written are not given here. Some results are limits rather than exact numbers.
For CRF1R Emax in this document: reference of the scale not given here.
For CRF2R Emax in this document: reference of the scale not given here.

SQEPPISLDLPLELLREVLEMTKADQLAQQAHSNRKLLDIA-NH2 [SEQ ID NO 89]: in experiment [1], the “CRF2R EC50” value worked out at 100 nM and the “CRF2R Emax” value is 12.7%.
As for IVLSLDVPIGLLQILLEQEKARAAREQATTNARILARV-NH2 [SEQ ID NO 121], in experiment [1], the “CRF2R EC50” value was found to be 5.67 nM.
As for ZGPPISIDLSIGLLRKMIEIEKQEKEKQQAANNRLLLDTI (C-terminal amide) [SEQ ID NO 25], in experiment [1], the “CRF2R EC50” value is 81 nM and the “CRF2R Emax” value was 81.9%. Further, in experiment [2], the “CRF1R EC50” value was determined as 677 nM and the “CRF1R Emax” value turned out to be 92.3%.
As to ZGPPISIDLPTVLLRKMIEIEKQEKEKQQAANNRLLLDTI (C-terminal amide) [SEQ ID NO 46], in experiment [1], the “CRF2R EC50” value is over 100 nM and the “CRF2R Emax” value was 100%. For the same molecule, in experiment [2], the “CRF1R EC50” value is over 1000 nM and the “CRF1R Emax” value stood at 17%.
As for ZGPPISIDLPTKLLRKMIEIEKQEKEKQQAANNRLLLDTI (C-terminal amide) [SEQ ID NO 45], in experiment [1], the “CRF2R EC50” value is over 100 nM and the “CRF2R Emax” value came out at 44%. Moreover, in experiment [2], the “CRF1R EC50” value was over 1000 nM and the “CRF1R Emax” value was 7%.
For the molecule ZGPPISIDLPQQLLRKMIEIEKQEKEKQQAANNRLLLDTI (C-terminal amide) [SEQ ID NO 198], in experiment [1], the “CRF2R EC50” value stood at 29.9 nM and the “CRF2R Emax” value was 100%.
For the molecule ZGPPISIDLPIALLRKMIEIEKQEKEKQQAANNRLLLDTI (C-terminal amide) [SEQ ID NO 47], in experiment [1], the “CRF2R EC50” value is over 100 nM and the “CRF2R Emax” value was determined as 66%. Also, in experiment [2], the “CRF1R EC50” value was found to be 1000 nM and the “CRF1R Emax” value came to 12%.
As to ZGPPISIDLPILLLRKMIEIEKQEKEKQQAANNRLLLDTI (C-terminal amide) [SEQ ID NO 35], in experiment [1], the “CRF2R EC50” value is 15.6 nM and the “CRF2R Emax” value turned out to be 88%. In addition, in experiment [2], the “CRF1R EC50” value was over 1000 nM and the “CRF1R Emax” value stood at 74%.
For ZGPPISIDLPYYLLRKMIEIEKQEKEKQQAANNRLLLDTI (C-terminal amide) [SEQ ID NO 40], in experiment [1], the “CRF2R EC50” value is 6.95 nM and the “CRF2R Emax” value came to 93%. Moreover, in experiment [2], the “CRF1R EC50” value was determined as 102 nM and the “CRF1R Emax” value stood at 99%.
Take ZGPPISIDLPIILLRKMIEIEKQEKEKQQAANNRLLLDTI (C-terminal amide) [SEQ ID NO 36]: in experiment [1], the “CRF2R EC50” value was 14.8 nM and the “CRF2R Emax” value came out at 73%. For the same molecule, in experiment [2], the “CRF1R EC50” value was over 1000 nM and the “CRF1R Emax” value was determined as 33%.
ZGPPISIDLSLELLRKMIEIEKQEKEKQQAANNALLLATI (C-terminal amide) [SEQ ID NO 30]: in experiment [1], the “CRF2R EC50” value is 18.7 nM and the “CRF2R Emax” value amounted to 85.5%. In experiment [2], the “CRF1R EC50” value is 100 nM and the “CRF1R Emax” value turned out to be 100%.
The corresponding values for ZGPPISIDLPIVLLRKMIEIEKQEKEKQQAANNRLLLDTI (C-terminal amide) [SEQ ID NO 31] are 30.8 nM, 100%, over 1000 nM and 18%.
For the molecule ZGPPISIDLPIFLLRKMIEIEKQEKEKQQAANNRLLLDTI (C-terminal amide) [SEQ ID NO 29], in experiment [1], the “CRF2R EC50” value amounted to 16 nM and the “CRF2R Emax” value worked out at 100%. Besides, in experiment [2], the “CRF1R EC50” value is over 1000 nM and the “CRF1R Emax” value turned out to be 79%.
Regarding ZGPPISIDLPEYLLRKMIEIEKQEKEKQQAANNRLLLDTI (C-terminal amide) [SEQ ID NO 48], in experiment [1], the “CRF2R EC50” value stood at 100 nM and the “CRF2R Emax” value worked out at 14%. In experiment [2], the “CRF1R EC50” value came out at 1000 nM and the “CRF1R Emax” value is 21%.
For ZGPPISIDLPIDLLRKMIEIEKQEKEKQQAANNRLLLDTI (C-terminal amide) [SEQ ID NO 28], in experiment [1], the “CRF2R EC50” value was found to be 100 nM and the “CRF2R Emax” value was determined as 15%. In experiment [2], the “CRF1R EC50” value is over 1000 nM and the “CRF1R Emax” value worked out at 2%.
Consider ZGPPISIDLPTTLLRKMIEIEKQEKEKQQAANNRLLLDTI (C-terminal amide) [SEQ ID NO 42], for which, in experiment [1], the “CRF2R EC50” value is over 100 nM and the “CRF2R Emax” value was 88%. Also, in experiment [2], the “CRF1R EC50” value was over 1000 nM and the “CRF1R Emax” value came out at 10%.
For the molecule ZGPPISIDLPTSLLRKMIEIEKQEKEKQQAANNRLLLDTI (C-terminal amide) [SEQ ID NO 43], in experiment [1], the “CRF2R EC50” value is over 100 nM and the “CRF2R Emax” value was 67%. Besides, in experiment [2], the “CRF1R EC50” value is over 1000 nM and the “CRF1R Emax” value was 10%.
Regarding ZGPPISIDLPINLLRKMIEIEKQEKEKQQAANNRLLLDTI (C-terminal amide) [SEQ ID NO 37], in experiment [1], the “CRF2R EC50” value is over 100 nM and the “CRF2R Emax” value worked out at 51%. In addition, in experiment [2], the “CRF1R EC50” value was over 1000 nM and the “CRF1R Emax” value was 5%.
Take ZGPPISIDLPQVLLRKMIEIEKQEKEKQQAANNRLLLDTI (C-terminal amide) [SEQ ID NO 197]: in experiment [1], the “CRF2R EC50” value stood at 48.1 nM and the “CRF2R Emax” value stood at 94%.
Take ZGPPISIDLPVYLLRKMIEIEKQEKEKQQAANNRLLLDTI (C-terminal amide) [SEQ ID NO 39]: in experiment [1], the “CRF2R EC50” value stood at 58.2 nM and the “CRF2R Emax” value is 94%. In addition, in experiment [2], the “CRF1R EC50” value was found to be 1000 nM and the “CRF1R Emax” value was found to be 63%.
Consider ZGPPISIDLPTILLRKMIEIEKQEKEKQQAANNRLLLDTI (C-terminal amide) [SEQ ID NO 50], for which, in experiment [1], the “CRF2R EC50” value worked out at 19 nM and the “CRF2R Emax” value is 94%. Further, in experiment [2], the “CRF1R EC50” value is over 1000 nM and the “CRF1R Emax” value was found to be 42%.
In the case of ZGPPISIDLPTWLLRKMIEIEKQEKEKQQAANNRLLLDTI (C-terminal amide) [SEQ ID NO 41], in experiment [1], the “CRF2R EC50” value was determined as 18.3 nM and the “CRF2R Emax” value amounted to 100%. Moreover, in experiment [2], the “CRF1R EC50” value is over 1000 nM and the “CRF1R Emax” value is 43%.
For ZGPPISIDLPIKLLRKMIEIEKQEKEKQQAANNRLLLDTI (C-terminal amide) [SEQ ID NO 34], in experiment [1], the “CRF2R EC50” value is over 100 nM and the “CRF2R Emax” value was 45%. Further, in experiment [2], the “CRF1R EC50” value was over 1000 nM and the “CRF1R Emax” value is 11%.
For ZGPPISIDLPIPLLRKMIEIEKQEKEKQQAANNRLLLDTI (not fully specified; C-terminal amide) [SEQ ID NO 26], in experiment [1], the “CRF2R EC50” value was found to be 91.8 nM and the “CRF2R Emax” value was found to be 86%. Also, in experiment [2], the “CRF1R EC50” value is over 1000 nM and the “CRF1R Emax” value was found to be 16%.
On to ZGPPISIDLPTDLLRKMIEIEKQEKEKQQAANNRLLLDTI (C-terminal amide) [SEQ ID NO 49], for which, in experiment [1], the “CRF2R EC50” value was over 100 nM and the “CRF2R Emax” value came to 37%. Further, in experiment [2], the “CRF1R EC50” value was over 1000 nM and the “CRF1R Emax” value is 15%.
For the molecule ZGPPISIDLPQYLLRKMIEIEKQEKEKQQAANNRLLLDTI (C-terminal amide) [SEQ ID NO 27], in experiment [1], the “CRF2R EC50” value came out at 10.7 nM and the “CRF2R Emax” value was 96%. Moreover, in experiment [2], the “CRF1R EC50” value turned out to be 325 nM and the “CRF1R Emax” value is 100%.
The matching figures for ZGPPISIDLPAYLLRKMIEIEKQEKEKQQAANNRLLLDTI (C-terminal amide) [SEQ ID NO 32]: 20.2 nM, 98%, 606 nM and 94%.
Turning to ZGPPISIDLPIRLLRKMIEIEKQEKEKQQAANNRLLLDTI (C-terminal amide) [SEQ ID NO 38], in experiment [1], the “CRF2R EC50” value is 71.9 nM and the “CRF2R Emax” value is 91%. Further, in experiment [2], the “CRF1R EC50” value was over 1000 nM and the “CRF1R Emax” value stood at 11%.
As to ZGPPISIDLPTLLLRKMIEIEKQEKEKQQAANNRLLLDTI (C-terminal amide) [SEQ ID NO 51], in experiment [1], the “CRF2R EC50” value is 20.6 nM and the “CRF2R Emax” value was found to be 100%. In experiment [2], the “CRF1R EC50” value was over 1000 nM and the “CRF1R Emax” value was 48%.
As to ZGPPISIDLPTFLLRKMIEIEKQEKEKQQAANNRLLLDTI (C-terminal amide) [SEQ ID NO 44], in experiment [1], the “CRF2R EC50” value was found to be 19.1 nM and the “CRF2R Emax” value is 87%. For the same molecule, in experiment [2], the “CRF1R EC50” value was 944 nM and the “CRF1R Emax” value amounted to 64%.
Consider IVLSLDVPIGLLQILLEQEKARAAREQATTNARILARV-NH2 [SEQ ID NO 107], for which, in experiment [1], the “CRF2R EC50” value was found to be 12.1 nM.
Consider IVLSLDVPIGLLQILLEQEKARAAREQATTNARILARV-NH2 [SEQ ID NO 3], for which, in experiment [1], the “CRF2R EC50” value came out at 12.1 nM.

For the origin of these results see patent US20030148958A1 (PROCTER AND GAMBLE, published 2003).
